Experimental findings from PMC4090178, “Structural and Biochemical Characterization of Human PR70 in Isolation and in Complex with the Scaffolding Subunit of Protein Phosphatase 2A” (PLoS ONE, 2014) are described below.

Details in all cases: both partners purified
The target in one experiment is T1, A α (HEAT1–15) (UniProt P30153 1-589).
T1 construct: PP2A scaffolding subunit A, α isoform, product of PPP2R1A; HEAT repeats 1–15; calculated molecular weight 65.3 kD; also called full length A-subunit; scaffolding A subunit; source: E. coli BL21(DE3), purified (IMAC, TEV cleavage, gel filtration); not shown: His tag, N-terminal, cleaved
The experiment in a line: SAXS; complex purified on Superdex 200 in 20 mM Tris pH 7.5, 20 mM NaCl, 2 mM CaCl2, 0.5 mM TCEP, 1% glycerol at 15°C just prior to SAXS; 1.5 mg/ml.

Experiment [1] has as its target T2, PR70 core fragment (residues 130–483) (human, UniProt Q9Y5P8 130-483).
T2 construct: PR70 (B''β), regulatory B'' subunit of PP2A, human, product of PPP2R3B; The crystal (PDB 4MEW) was of the selenomethionine-labelled protein alone; the model holds residues 134–481; also called PR70 core domain; source: E. coli BL21(DE3), purified (IMAC, TEV cleavage, gel filtration); not shown: His tag, N-terminal, cleaved
T2 sequence (looked up): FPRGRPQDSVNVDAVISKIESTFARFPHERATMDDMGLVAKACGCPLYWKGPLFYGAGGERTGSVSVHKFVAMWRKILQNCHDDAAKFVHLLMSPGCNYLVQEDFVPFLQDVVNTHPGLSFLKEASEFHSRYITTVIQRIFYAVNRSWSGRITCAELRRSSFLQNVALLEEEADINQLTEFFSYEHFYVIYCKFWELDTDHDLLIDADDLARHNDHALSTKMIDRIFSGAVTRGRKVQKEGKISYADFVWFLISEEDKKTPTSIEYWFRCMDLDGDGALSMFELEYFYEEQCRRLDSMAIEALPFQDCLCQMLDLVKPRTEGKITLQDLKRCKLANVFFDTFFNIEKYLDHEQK
The experiment in a line: ITC; B''-constructs at 20–40 µM in the cell titrated with 200–300 µM Aα or Aβ constructs; 15°C; 20 mM Tris pH 7.5, 200 mM NaCl, 2 mM CaCl2; 1:1 binding model. Background: Isothermal titration calorimetry measures the heat released or taken up as one component is titrated into another.

The target in a further experiment is T3, PR70 (105–575) (human, UniProt Q9Y5P8 105-575).
T3 construct: PR70 (B''β), regulatory B'' subunit of PP2A, human, product of PPP2R3B; source: E. coli BL21(DE3), purified (IMAC, TEV cleavage, gel filtration); not shown: His tag, N-terminal, cleaved
T3 sequence (looked up): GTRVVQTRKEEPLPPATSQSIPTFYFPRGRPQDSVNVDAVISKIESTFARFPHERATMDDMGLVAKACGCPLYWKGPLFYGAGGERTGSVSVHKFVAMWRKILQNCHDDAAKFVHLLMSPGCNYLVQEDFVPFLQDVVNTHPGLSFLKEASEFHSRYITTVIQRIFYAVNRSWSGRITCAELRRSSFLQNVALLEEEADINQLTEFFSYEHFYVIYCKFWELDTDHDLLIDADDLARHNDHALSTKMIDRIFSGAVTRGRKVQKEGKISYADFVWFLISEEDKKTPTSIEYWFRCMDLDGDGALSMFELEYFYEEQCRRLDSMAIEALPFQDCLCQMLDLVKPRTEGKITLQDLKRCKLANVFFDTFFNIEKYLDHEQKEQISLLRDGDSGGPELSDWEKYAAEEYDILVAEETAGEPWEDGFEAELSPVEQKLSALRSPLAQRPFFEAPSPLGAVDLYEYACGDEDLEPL
Described as above.

For another experiment, the target named is T4, PR70 (130–504) (human, UniProt Q9Y5P8 130-504).
T4 construct: PR70 (B''β), regulatory B'' subunit of PP2A, human, product of PPP2R3B; residues 130–504; source: E. coli BL21(DE3), purified (IMAC, TEV cleavage, gel filtration); not shown: His tag, N-terminal, cleaved
T4 sequence (looked up): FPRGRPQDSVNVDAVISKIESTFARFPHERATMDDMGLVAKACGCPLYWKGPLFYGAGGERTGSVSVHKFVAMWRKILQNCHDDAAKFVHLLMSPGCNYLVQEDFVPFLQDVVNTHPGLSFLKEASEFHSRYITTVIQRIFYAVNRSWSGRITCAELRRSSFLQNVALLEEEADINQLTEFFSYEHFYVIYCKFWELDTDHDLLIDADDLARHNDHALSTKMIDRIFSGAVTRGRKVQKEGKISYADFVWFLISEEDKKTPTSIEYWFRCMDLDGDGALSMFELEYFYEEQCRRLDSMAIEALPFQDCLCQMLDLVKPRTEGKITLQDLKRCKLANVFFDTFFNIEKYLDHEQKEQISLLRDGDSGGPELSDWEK
The description is as above.

In another experiment the target is T5, PR70 (25–575) (human, UniProt Q9Y5P8 25-575).
T5 construct: PR70 (B''β), regulatory B'' subunit of PP2A, human, product of PPP2R3B; also called B''/PR70; source: E. coli BL21(DE3), purified (IMAC, TEV cleavage, gel filtration); not shown: His tag, N-terminal, cleaved
T5 sequence (looked up): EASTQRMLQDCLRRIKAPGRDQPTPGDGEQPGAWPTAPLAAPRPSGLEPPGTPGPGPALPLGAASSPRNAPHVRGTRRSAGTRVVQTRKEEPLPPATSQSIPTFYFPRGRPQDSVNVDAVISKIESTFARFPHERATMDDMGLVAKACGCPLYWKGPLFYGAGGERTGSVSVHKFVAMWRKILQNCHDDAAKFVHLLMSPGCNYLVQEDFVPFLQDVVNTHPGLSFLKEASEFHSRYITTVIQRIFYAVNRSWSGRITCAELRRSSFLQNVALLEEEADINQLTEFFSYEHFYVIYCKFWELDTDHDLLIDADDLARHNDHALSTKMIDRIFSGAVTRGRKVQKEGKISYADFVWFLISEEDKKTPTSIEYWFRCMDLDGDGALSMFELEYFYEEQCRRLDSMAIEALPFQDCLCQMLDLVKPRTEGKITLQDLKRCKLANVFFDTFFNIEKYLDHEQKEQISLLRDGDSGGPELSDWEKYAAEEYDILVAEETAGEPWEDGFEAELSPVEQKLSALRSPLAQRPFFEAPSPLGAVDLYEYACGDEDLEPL
The experiment is described as above.

B1: PR70 (130–575) (domain or fragment, human, UniProt Q9Y5P8 130-575, looked up)
chain: FPRGRPQDSVNVDAVISKIESTFARFPHERATMDDMGLVAKACGCPLYWKGPLFYGAGGERTGSVSVHKFVAMWRKILQNCHDDAAKFVHLLMSPGCNYLVQEDFVPFLQDVVNTHPGLSFLKEASEFHSRYITTVIQRIFYAVNRSWSGRITCAELRRSSFLQNVALLEEEADINQLTEFFSYEHFYVIYCKFWELDTDHDLLIDADDLARHNDHALSTKMIDRIFSGAVTRGRKVQKEGKISYADFVWFLISEEDKKTPTSIEYWFRCMDLDGDGALSMFELEYFYEEQCRRLDSMAIEALPFQDCLCQMLDLVKPRTEGKITLQDLKRCKLANVFFDTFFNIEKYLDHEQKEQISLLRDGDSGGPELSDWEKYAAEEYDILVAEETAGEPWEDGFEAELSPVEQKLSALRSPLAQRPFFEAPSPLGAVDLYEYACGDEDLEPL
notes: PR70 (B''β), regulatory B'' subunit of PP2A, human, product of PPP2R3B; Used only for SAXS of the complex with the A-subunit; source: E. coli BL21(DE3), purified (IMAC, TEV cleavage, gel filtration); not shown: His tag, N-terminal, cleaved
As for B1, the binding result in the experiment with A α (HEAT1–15) was “binds”.

B2: A α (HEAT1–8) (domain or fragment, UniProt P30153 1-321, looked up)
chain: MAAADGDDSLYPIAVLIDELRNEDVQLRLNSIKKLSTIALALGVERTRSELLPFLTDTIYDEDEVLLALAEQLGTFTTLVGGPEYVHCLLPPLESLATVEETVVRDKAVESLRAISHEHSPSDLEAHFVPLVKRLAGGDWFTSRTSACGLFSVCYPRVSSAVKAELRQYFRNLCSDDTPMVRRAAASKLGEFAKVLELDNVKSEIIPMFSNLASDEQDSVRLLAVEACVNIAQLLPQEDLEALVMPTLRQAAEDKSWRVRYMVADKFTELQKAVGPEITKTDLVPAFQNLMKDCEAEVRAAASHKVKEFCENLSADCRENV
notes: PP2A scaffolding subunit A, α isoform, product of PPP2R1A; HEAT repeats 1–8 (C-terminal repeats deleted); also called construct spanning HEAT repeats 1–8; source: E. coli BL21(DE3), purified (IMAC, TEV cleavage, gel filtration); not shown: His tag, N-terminal, cleaved
For B2, the Kd in experiment [1] is over 100000 nM; with PR70 (105–575) it was 158 ± 22 nM; with PR70 (130–504) it was over 100000 nM; with PR70 (25–575) it was 223 ± 21 nM. Besides, the dH with PR70 (105–575) was -20.3 ± 0.2 kcal/mol; with PR70 (25–575), -19.1 ± 0.4 kcal/mol. Besides, the “stoichiometry N” value worked out at 0.99 ± 0.01 in the experiment with PR70 (105–575) and 0.93 ± 0.02 with PR70 (25–575).

As a reminder, the Kd is the free concentration of one partner at which half of the binding sites on the other are occupied at equilibrium, for simple one-to-one binding. Read a low Kd as higher affinity. In general, stoichiometry N refers to a count of units in the complex or per binding partner.
